The results in this text go back to patent US20200038441A1 (NANTKWEST, published 2020).

This experiment deals with PD-L1 on SUP-B15 PD-L1+ cells (UniProt Q9NZQ7 19-290, limits assumed). In words: cell-based or functional assay.
PD-L1 on SUP-B15 PD-L1+ cells, sequence (Q9NZQ7 19-290 limits assumed): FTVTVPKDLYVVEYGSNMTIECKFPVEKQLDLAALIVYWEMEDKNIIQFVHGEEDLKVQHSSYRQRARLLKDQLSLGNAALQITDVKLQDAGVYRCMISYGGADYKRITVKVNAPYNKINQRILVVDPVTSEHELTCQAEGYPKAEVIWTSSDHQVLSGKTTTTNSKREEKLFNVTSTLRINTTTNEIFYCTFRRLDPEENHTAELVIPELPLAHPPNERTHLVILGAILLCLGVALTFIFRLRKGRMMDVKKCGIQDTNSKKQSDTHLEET

B1: PD-L1 CAR expressed on aTGFβ/PD-L1 t-haNK cells (other)
chain: MDWIWRILFLVGAATGAHSAQPANIQMTQSPSSVSASVGDRVTITCRASQDISRWLAWYQQKPGKAPKLLIYAASSLQSGVPSRFSGSGSGTDFALTISSLQPEDFATYYCQQADSRFSITFGQGTRLEIKGGGGSGGGGSGGGGSGGGGSEVQLVQSGGGLVQPGGSLRLSCAASGFTFSSYSMNWVRQAPGKGLEWVSYISSSSSTIQYADSVKGRFTISRDNAKNSLYLQMNSLRDEDTAVYYCARGDYYYGMDVWGQGTTVTVSSAAALSNSIMYFSHFVPVFLPAKPTTTPAPRPPTPAPTIASQPLSLRPEACRPAAGGAVHTRGLDFACFWVLVVVGGVLACYSLLVTVAFIIFWVRLKIQVRKAAITSYEKSDGVYTGLSTRNQETYETLKHEKPPQ
B1: the “specific killing of SUP-B15 PD-L1+ target cells, 4 h cytotoxicity assay, effector to target ratio of 8” value was approximately 70%.
